From article PMC8600091

Legend:
MBD2 MBD R166K/R188K = MBD2 MBD R166K/R188K (Homo sapiens, UniProt Q9UBB5 143-220, R166K;R188K); assay: ITC
MBD2 MBD R188K = MBD2 MBD R188K (Homo sapiens, UniProt Q9UBB5 143-220, R188K); assay: ITC
MBD2 MBD R188K, sequence (Q9UBB5 143-220 R188K): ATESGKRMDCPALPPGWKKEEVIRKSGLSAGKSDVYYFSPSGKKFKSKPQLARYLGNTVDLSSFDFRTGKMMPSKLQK

MBD2 MBD R166K/R188K, sequence (Q9UBB5 143-220 R166K/R188K): as the sequence (Q9UBB5 143-220 R188K) above, with R24K counted along it

B1: mCG dsDNA 12mer (dsDNA)
DNA 1: GCCAACGTTGGC
DNA 2: GCCAACGTTGGC
modifications: 5-methyl-C at position 6 of both strands
binding result (MBD2 MBD R166K/R188K): no binding
Kd (MBD2 MBD R188K): 7.5 ± 0.4 µM
